In US10245299B2, “Autoassembling peptides for the treatment of pulmonary bulla” (3-D MATRIX, LTD., priority 2014, dated 2019):
Where no end group is shown, it is not given here.

Tests used:
[1] = Rheological properties at adjusted salt ionic strength; format: physicochemical; details: for ionic strength adjustment up to which the rheological property of the solution increases (decreases above): 1% solutions, storage modulus at 1 rad/sec
Method: Based on the visual observation of the effect of salt ionic strength on the properties of the peptide solutions, the effect on the rheological properties of the peptide solutions after adjusting their ionic strength level with NaCl to 0.7 M (PuraMatrix®), 0.2 M (KLD12) or 0.02 M (IEIK13), which is closely below the critical ionic strength at which each peptide becomes cloudy, was evaluated. If the ionic strength levels with NaCl of peptide solutions are higher than 0.9 M (PuraMatrix®), 0.3 M (KLD12) or 0.03 M (IEIK13), the peptide solution begin phase separation becoming cloudy and weak. The rheological property of PuraMatrix®, KLD12 and IEIK13 solutions was higher after adjusting their ionic strength level with NaCl to 0.7 M (PuraMatrix®), 0.2 M (KLD12) or 0.02 M (IEIK13), The results are shown in FIG. 10 for KLD12 1%, FIG. 11 for IEIK13 1%, and FIG. 12 for PuraMatrix® 1%, respectively. Frequency sweep tests were performed from 1 rad/s to 10 rad/s at 1 Pa.
Based on the results of the effect on the rheological properties of the peptide solutions after adjusting their ionic strength level with NaCl to 0.7 M (PuraMatrix®), 0.2 M (KLD12) or 0.02 M (IEIK13), the effect on the rheological properties of the peptide solution at various salt ionic strengths was evaluated. […] The results are shown in FIG. 13 for PuraMatrix® 1% solution and in FIG. 14 for IEIK13 1% solution. Frequency sweep tests were performed from 1 rad/sec to 10 rad/sec at 1 Pa and the storage modulus at 1 rad/sec was selected for data.
Based on the results of the effect on the rheological properties of the peptide solutions after adjusting their ionic strength levels, the effect on the rheological properties of the peptide hydrogels after DMEM treatment for 10 min was evaluated. […] The results are shown in FIG. 15 for PuraMatrix® 1% hydrogels and in FIG. 16 for IEIK13 1% hydrogels, both after DMEM treatment for 10 min. Frequency sweep tests were performed from 1 rad/sec to 10 rad/sec at 1 Pa and the storage modulus at 1 rad/sec was selected for data.
Based on the results of the effect on the rheological properties of the peptide solutions and hydrogels after adjusting their ionic strength levels with NaCl, the effect of various salts (KCl, MgCl2, and CaCl2) was also evaluated. The rheological property of PuraMatrix® solutions increases with ionic strength adjustment at 0.15 M of all the salts. Increases of the rheological property of PuraMatrix® solutions with various salts were not predominantly different. However, increases of the rheological property of PuraMatrix® solutions may vary depending on the salting out constant, K of each salt. Constant K is a constant in Cohen's equation: log S=B−KI, where S is solubility, B is idealized solubility, K is salting out constant, and I is ionic strength. With a higher value of constant K and ionic strength of salts, solubility of the peptide may decrease resulting in strong peptide self-assembly with increased hydrophobic effect and higher rheological properties of the peptide solution. The constant K of NaCl may be higher than the other salts. […] The results are shown in FIG. 17 for PuraMatrix® 1% solution before DMEM treatment, and in FIG. 18 for PuraMatrix® 1% hydrogels after DMEM treatment for 10 min.
In accordance with one or more embodiments, IEIK13, KLD12, and PuraMatrix® may be dissolved both in salt buffer such as NaCl and at an elevated pH level adjusted with alkali salt buffer such as NaOH to keep their salt ionic strength under their critical salt points as well as their pH level to about 2.5˜4.0, so that they may have stiffer properties. With respect to PuraMatrix®, […] and IEIK13, the peptide solutions are still clear with 0.9% NaCl (ionic strength: 0.15 M) at pH 3.4 adjusted with NaOH. […] The effect of salt ionic strength and pH adjustment on the rheological properties of PuraMatrix® 2.5% solution are shown in FIG. 20. […]

[2] = Gelation kinetics of pH adjusted peptides, time sweep with DMEM; format: physicochemical
Method: The effect of pH level on the properties of gelation kinetics was evaluated to identify optimized pH levels for the peptides as described herein. Fast gelation kinetics of PuraMatrix® and other peptides within body fluid may generally improve its function and response time for various clinical applications. The pH level may impart response time to begin gelation when treated with simulated body fluid including but not limited to DMEM. […] A fast response time of PuraMatrix® and other peptides within body fluid may generally improve its function and response time for various clinical applications.
(§1) Time sweep tests were performed at 1 rad/sec and at 1 Pa with 20 mm plates and 500 μm gap distance. During time sweep test of PuraMatrix® 2.5% solution, DMEM was added into the chamber surrounding the measuring plates to soak PuraMatrix® solution at 0 time point. The results are shown in FIG. 9A for PuraMatrix® 2.5% solution.
as §1, with “IEIK13 1.5%” for “PuraMatrix® 2.5%”, “IEIK13 1.5%” for “PuraMatrix®”, “point and continuously data was recorded.” for “point.”, “9B” for “9A”

[3] = 1% hydrogels after DMEM treatment for 10 min
[4] = with pH adjustment, PuraMatrix® 2.5%, IEIK13 1.5% solution

Substance	ionic strength adjustment up to which the rheological property of hydrogels increased (decreases above) [1, 3]	rheological property of hydrogels with ionic strength adjustment with various salts ([1]; 1% hydrogels after DMEM treatment for 10 min, 0.15 M ionic strength)	rheological property of solutions with NaCl compared with other salts ([1]; 1% solution, 0.15 M ionic strength)	rheological property of solutions with ionic strength adjustment ([1]; 1% solution, 0.15 M ionic strength of all the salts (NaCl, KCl, MgCl2, CaCl2))	ionic strength adjustment up to which the rheological property of the solution increases (decreases above) [1]	rheological property ([1]; 2.5% solution with 0.9% NaCl (ionic strength: 0.15 M) at pH 3.4)	ionic strength level with NaCl above which the solution begins phase separation becoming cloudy and weak [1]	storage modulus response on DMEM addition [2, 4]	rheological property of hydrogels with ionic strength adjustment [1, 3]	storage modulus response on DMEM addition ([2]; without pH adjustment)
Arg-Ala-Asp-Ala-Arg-Ala-Asp-Ala-Arg-Ala-Asp-Ala-Arg-Ala-Asp-Ala [PuraMatrix®]	up to 0.7 M	comparable to increases of the rheological property of PuraMatrix® solutions with various salts	slightly higher than those with KCl and CaCl2	increases	up to 0.7 M	stiffer than those of PuraMatrix control and PuraMatrix with only NaCl 0.9%	higher than 0.9 M	immediate storage modulus increase		
Ile-Glu-Ile-Lys-Ile-Glu-Ile-Lys-Ile-Glu-Ile-Lys-Ile [IEIK13]					up to 0.03 M		> 0.03 M	immediate storage modulus increase	did not significantly change with ionic strength adjustment up to 0.025 M, while decreases above 0.03 M	immediate storage modulus increase
KLDLKLDLKLDL [KLD12]							> 0.3 M			
